The EC50 (read off the curve) is the concentration giving half of the maximal effect. A lower EC50 (read off the curve) goes with higher potency in that assay. As usually defined, the EC50 is the concentration needed to bring the measured effect to its halfway point. Low values mean greater potency, high ones weaker potency.

Assay [1] has as its target T1, recombinant human CD39-M2 extracellular domain protein (human, UniProt P49961 38-478).
T1 sequence: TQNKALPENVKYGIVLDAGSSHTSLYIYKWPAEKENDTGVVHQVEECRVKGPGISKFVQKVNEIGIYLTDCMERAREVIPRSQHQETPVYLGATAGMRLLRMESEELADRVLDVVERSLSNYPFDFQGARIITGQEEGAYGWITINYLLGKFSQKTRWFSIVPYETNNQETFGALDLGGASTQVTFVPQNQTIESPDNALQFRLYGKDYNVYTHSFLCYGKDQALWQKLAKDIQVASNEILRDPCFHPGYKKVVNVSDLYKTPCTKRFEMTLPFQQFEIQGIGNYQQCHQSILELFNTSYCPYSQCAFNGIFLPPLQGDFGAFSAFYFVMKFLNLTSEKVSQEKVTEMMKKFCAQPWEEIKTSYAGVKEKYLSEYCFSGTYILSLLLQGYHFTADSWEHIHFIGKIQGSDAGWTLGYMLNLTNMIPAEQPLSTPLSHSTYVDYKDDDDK
In words: cell-based or functional assay.

The target of assay [2] is T2, human CD39 expressed on cells (human, UniProt P49961 1-510).
T2 sequence: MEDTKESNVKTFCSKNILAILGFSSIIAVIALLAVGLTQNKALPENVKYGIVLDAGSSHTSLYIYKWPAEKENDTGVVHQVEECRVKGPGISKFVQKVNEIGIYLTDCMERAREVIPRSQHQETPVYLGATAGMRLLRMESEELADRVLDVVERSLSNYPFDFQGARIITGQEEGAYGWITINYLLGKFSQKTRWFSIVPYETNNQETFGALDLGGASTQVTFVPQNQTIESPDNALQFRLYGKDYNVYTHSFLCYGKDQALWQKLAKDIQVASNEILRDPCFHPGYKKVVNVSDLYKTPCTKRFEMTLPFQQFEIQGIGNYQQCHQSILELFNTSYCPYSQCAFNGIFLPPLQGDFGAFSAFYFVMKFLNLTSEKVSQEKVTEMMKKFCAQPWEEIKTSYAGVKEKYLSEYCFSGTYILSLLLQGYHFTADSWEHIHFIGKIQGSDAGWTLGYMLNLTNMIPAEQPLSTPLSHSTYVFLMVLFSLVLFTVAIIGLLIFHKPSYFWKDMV
In words: cell-based or functional assay.

For a further assay, the target named is T3, Human CD39-L4 (human, UniProt O75356 25-428).
T3 construct: Recombinant protein coated in ELISA; also called NTPDase5; ENTPD5
T3 sequence: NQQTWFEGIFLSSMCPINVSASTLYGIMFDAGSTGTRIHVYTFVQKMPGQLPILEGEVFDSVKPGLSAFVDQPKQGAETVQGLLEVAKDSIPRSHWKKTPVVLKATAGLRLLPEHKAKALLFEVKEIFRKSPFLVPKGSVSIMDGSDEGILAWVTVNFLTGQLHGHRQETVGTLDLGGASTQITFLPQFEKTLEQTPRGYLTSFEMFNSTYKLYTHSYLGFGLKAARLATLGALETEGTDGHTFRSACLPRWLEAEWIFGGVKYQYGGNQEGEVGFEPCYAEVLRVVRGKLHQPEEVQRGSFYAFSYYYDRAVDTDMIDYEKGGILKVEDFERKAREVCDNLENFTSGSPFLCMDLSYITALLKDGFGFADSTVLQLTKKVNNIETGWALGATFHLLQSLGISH
In words: ELISA on coated recombinant human CD39-L4 [panel huCD39 L4]. The procedure: Wells were washed in TBS Tween 20, and further saturated 2H at RT in TBS Blocking buffer. Dose range concentration of primary antibody was incubated in TBS blocking buffer for 2 h at RT. Wells were washed in TBS Tween 20. […] Optical density was measured on Enspire™ at OD=450.
(In an ELISA, binding on a coated surface is turned into a signal by an enzyme label.)

In assay [3] the target is T2, human CD39 expressed on cells. The assay can be described thus: flow cytometry titration on CHO cells expressing human CD39, labeled secondary antibody [panel CHO-huCD39]. The procedure: (§1) Cells were incubated with various concentration of unlabeled anti-CD39 antibody from 30 μg/ml to 5×10⁻⁴ μg/ml, for 30 minutes at 4° C. After washes, cells were incubated with Goat anti-mouse H+L labeled secondary antibody for 30 min at 4° C.

For assay [4] the target is unchanged. The assay can be described thus: flow cytometry titration on Ramos lymphoma cells, second experiment; Ramos cells, second set of experiments. The procedure: as §1
Assay [5] deals with T4, murine CD39 expressed on CHO cells (murine, UniProt P55772 1-510).
T4 construct: whole, on cells; also called CHO-moCD39; mouse CD39
T4 sequence (looked up): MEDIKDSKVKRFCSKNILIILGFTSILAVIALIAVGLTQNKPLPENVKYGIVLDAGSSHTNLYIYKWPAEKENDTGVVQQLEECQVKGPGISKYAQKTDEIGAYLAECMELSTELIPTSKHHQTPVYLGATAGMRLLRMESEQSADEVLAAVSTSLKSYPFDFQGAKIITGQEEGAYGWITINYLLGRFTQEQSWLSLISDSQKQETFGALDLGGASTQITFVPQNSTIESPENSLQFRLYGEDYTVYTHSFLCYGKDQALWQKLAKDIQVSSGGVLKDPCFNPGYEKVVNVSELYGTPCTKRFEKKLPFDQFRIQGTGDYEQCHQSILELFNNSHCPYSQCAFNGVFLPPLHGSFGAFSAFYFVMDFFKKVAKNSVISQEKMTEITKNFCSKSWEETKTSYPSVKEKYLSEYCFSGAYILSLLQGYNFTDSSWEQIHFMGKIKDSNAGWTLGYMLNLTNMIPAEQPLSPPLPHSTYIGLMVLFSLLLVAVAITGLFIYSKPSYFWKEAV
In words: flow cytometry titration on CHO cells expressing murine CD39 [panel CHO-moCD39]. The procedure: as §1

B1: antibody I-394 (antibody, human IgG1, kappa, V domains shown)
VH: EVQLQQSGPELVKPGASVKMSCKASGYTFTDYNMHWVKQSHGRTLEWIGYIVPLNGGSTFNQKFKGRATLTVNTSSRTAYMELRSLTSEDSAAYYCARGGTRFAYWGQGTLVTVSA
VL: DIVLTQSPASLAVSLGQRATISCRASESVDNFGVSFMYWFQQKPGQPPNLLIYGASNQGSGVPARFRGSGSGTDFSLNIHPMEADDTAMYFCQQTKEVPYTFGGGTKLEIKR
notes: The hybridoma-derived mouse form was used in early screening
Consider B1, for which, in assay [1], the “IC50, inhibition of the ATPase activity of soluble CD39 protein” value was determined as 0.003 µg/mL. Further, the “IC50 (inhibition of 50% of the enzymatic activity of CD39 expressed by 50,000 Ramos cells)” value in assay [2] was 0.05 µg/mL. The binding result (in the assay with Human CD39-L4; in assay [5]) was “no binding” throughout. The concentration giving a half-maximal response (EC50 (read off the curve)) in assay [3] was ~0.2 µg/mL. In assay [4], this molecule showed an EC50 of 0.19 µg/mL.

The record behind these values is patent US20190218304A1 (INNATE PHARMA, published 2019).
